Columns and labels:
Experiment in all cases: purified protein
Settings in all cases: 25 °C, 50 mM Hepes/NaOH pH 7.5, 0.5% v/v reduced Triton X-100
purified protein [1] = substrate: NCCc1c[nH]c2ccc(O)cc12
purified protein [2] = substrate: NCCC(=O)c1ccccc1N; format: biochemical, Homo sapiens
purified protein [3] = substrate: NCCc1ccc(O)cc1; format: biochemical, Homo sapiens
purified protein [4] = substrate: NCCc1ccccc1; format: biochemical, Homo sapiens
purified protein [5] = substrate: NCc1ccccc1

B1: Human MAOA (Homo sapiens) (protein)
chain: MENQEKASIAGHMFDVVVIGGGISGLSAAKLLTEYGVSVLVLEARDRVGGRTYTIRNEHVDYVDVGGAYVGPTQNRILRLSKELGIETYKVNVSERLVQYVKGKTYPFRGAFPPVWNPIAYLDYNNLWRTIDNMGKEIPTDAPWEAQHADKWDKMTMKELIDKICWTKTARRFAYLFVNINVTSEPHEVSALWFLWYVKQCGGTTRIFSVTNGGQERKFVGGSGQVSERIMDLLGDQVKLNHPVTHVDQSSDNIIIETLNHEHYECKYVINAIPPTLTAKIHFRPELPAERNQLIQRLPMGAVIKCMMYYKEAFWKKKDYCGCMIIEDEDAPISITLDDTKPDGSLPAIMGFILARKADRLAKLHKEIRKKKICELYAKVLGSQEALHPVHYEEKNWCEEQYSGGCYTAYFPPGIMTQYGRVIRQPVGRIFFAGTETATKWSGYMEGAVEAGERAAREVLNGLGKVTEKDIWVQEPESKDVPAVEITHTFWERNLPSVSGLLKIIGFSTSVTALGFVLYKYKLLPRS
notes: recombinant, overexpressed and purified by published protocols
Km (purified protein [1]): 1800 ± 100 µM | kcat (purified protein [1]): 3.777 ± 0.075 s⁻¹ | kcat/Km (purified protein [1]): 2100 M⁻¹ s⁻¹ | Km (purified protein [2]): 200 ± 20 µM | kcat (purified protein [2]): 1.39 ± 0.0383 s⁻¹ | kcat/Km (purified protein [2]): 6920 M⁻¹ s⁻¹ | Km (purified protein [3]): 100 ± 20 µM | kcat (purified protein [3]): 1.53 ± 0.07 s⁻¹ | kcat/Km (purified protein [3]): 15300 M⁻¹ s⁻¹ | Km (purified protein [4]): 400 ± 100 µM | kcat (purified protein [4]): 0.803 ± 0.055 s⁻¹ | kcat/Km (purified protein [4]): 2010 M⁻¹ s⁻¹

B2: Human MAOB (Homo sapiens) (protein)
chain: SNKCDVVVVGGGISGMAAAKLLHDSGLNVVVLEARDRVGGRTYTLRNQKVKYVDLGGSYVGPTQNRILRLAKELGLETYKVNEVERLIHHVKGKSYPFRGPFPPVWNPITYLDHNNFWRTMDDMGREIPSDAPWKAPLAEEWDNMTMKELLDKLCWTESAKQLATLFVNLCVTAETHEVSALWFLWYVKQCGGTTRIISTTNGGQERKFVGGSGQVSERIMDLLGDRVKLERPVIYIDQTRENVLVETLNHEMYEAKYVISAIPPTLGMKIHFNPPLPMMRNQMITRVPLGSVIKCIVYYKEPFWRKKDYCGTMIIDGEEAPVAYTLDDTKPEGNYAAIMGFILAHKARKLARLTKEERLKKLCELYAKVLGSLEALEPVHYEEKNWCEEQYSGGCYTTYFPPGILTQYGRVLRQPVDRIYFAGTETATHWSGYMEGAVEAGERAAREILHAMGKIPEDEIWQSEPESVDVPAQPITTTFLERHLPSVPGLLRLIGLTTIFSATALGFLAHKRGLLVRV
notes: as for B1
Km (purified protein [5]): 350 ± 100 µM | kcat (purified protein [5]): 0.738 ± 0.0833 s⁻¹ | kcat/Km (purified protein [5]): 2100 M⁻¹ s⁻¹ | Km (purified protein [2]): 52 ± 7 µM | kcat (purified protein [2]): 0.485 ± 0.0167 s⁻¹ | kcat/Km (purified protein [2]): 9300 M⁻¹ s⁻¹ | Km (purified protein [3]): 400 ± 110 µM | kcat (purified protein [3]): 0.742 ± 0.0833 s⁻¹ | kcat/Km (purified protein [3]): 1850 M⁻¹ s⁻¹ | Km (purified protein [4]): 11 ± 1 µM | kcat (purified protein [4]): 0.758 ± 0.0167 s⁻¹ | kcat/Km (purified protein [4]): 68900 M⁻¹ s⁻¹

— article PMC11833248, “Evolutionary and Functional Analysis of Monoamine Oxidase F: A Novel Member of the Monoamine Oxidase Gene Family” (Genome Biology and Evolution, 2025)
